The values below come from PMC12774657.

Series [1] addresses HIF1a bHLH-PASA-PASB;ARNT bHLH-PASA-PASB (;) (UniProt Q16665+P27540). In words: EMSA. Conditions: EMSA: 10 nM probe, 20 mM Tris pH 8.0, 250 mM NaCl, 16 ug/ml salmon sperm ssDNA, 30 ug/ml BSA, 1.25 mM MgCl2, 6% glycerol, 10 mM DTT, room temperature 30 min …. (Mobility shift assays separate free from complexed probe on a gel.)
Series [2] concerns the target HIF2a bHLH-PASA-PASB;ARNT bHLH-PASA-PASB (;) (UniProt Q99814+P27540). Description: EMSA. Conditions: EMSA: 10 nM probe, 20 mM Tris pH 8.0, 250 mM NaCl, 16 ug/ml salmon sperm ssDNA, 30 ug/ml BSA, 1.25 mM MgCl2, 6% glycerol, 10 mM DTT, room temperature 30 min ….

The substance TACGTG-containing EMSA probe yielded a binding signal (fold affinity vs HIF2a/ARNT) in series [1] of 2. Moreover, the binding signal (reference (HIF1a/ARNT ~2 fold higher)) in series [2] came out at 1.
